This note sets out measurements from the DeepSol protein solubility set.

The data set can be described thus: soluble on expression in E. coli; label from the status in PepcDB or PDB records.
Turning to “APSYRVKRADIATCTEAAVVNAANARGTVGDGVCRAVAKKWPSAFKGAATPVGTIKTVMCGSYPVIHAVAPNFSATTEAEGDRELAAVYRAVAAEVNRLSLSSVAIPLLSTGVFSGGRDRLQQSLNHLFTAMDATDADVTIYCRDKSWEKKIQEAIDMRTAVELLNDDVELTTDLVRVHPDSSLVGRKGYSTTDGSLYSYFEGTKFNQAAIDMAEILTLWPRLQEANERICLYALGETMDNIGSKCPVNDSDSSTPPRTVPCLCRYAMTAERIARLRSHQVKSMVVCSSFPLPKYHVDGVQKVKCEKVLLFDPTVPSVVSPRKYAASTTDHSDRSLRGFDLDWTTDSSSTASDTMSLPSLQSCDIDSIYEPMAPIVVTADVHPEPAGIADLAADVHPEPADHVDLENPIPPPRPKRAAYLASRAAERPVPAPRKPTPAPRTAFRNKLPLTFGDFDEHEVDALASGITFGDFDDVLRLGRAGA”, the “soluble on expression in E. coli” value is on record as “not soluble”.
As for “MGSDKIHHHHHHMDFKELFPEVITKQEVKQSEDYIIVEQDGHVLHFPKSSLTKRELYLLQMTPSLEDASSVDSQNPWYRYLVEGRGRLPQSHSAVQFIFIEHQFTLSEELKDFLSPLVINVETIMTINQTQSVMILNQDNFFNATELLTDILPTIENDFNTRLRCYFGNSWTHLQAVDWKELYEEEYKLFTLFLSHKAEQHYCRFPKMALWALANQSPMPSIKAKCLQHILDTSDTSAIIKALWQEQGNLAKTAKALFIHRNSLQYKLDKFTQSSGLNLKILDDLAYAYLISMDT”, the “soluble on expression in E. coli” value is “not soluble”.
The same measure for “DSLGNLVDGDQIIYIIAKDRHQRGVLHGGVVGTLMSNYGLELAITSLGVPFQRSKVGDRYVLETLREKDWKIGGETSGHIVCLDKTTTGDGIVAALQVLSIMVKQNKALHELTAGIQLL”: “not soluble”.
For the sequence “NLSSEYVKDIYAYLRQLEAAQAVRPKYLLGREVTGNMRAILIDWLVQVQMKFRLLQETMYMTVSIIDRFMQNNSVPKKMLQLVGVTAMFIASKYEEMYPPEIGDFAFVTDNTYTKHQIRQMEMKILRALNFGLGRPLPLHFLRRASKIGEVDVEQHTLAKYLMELTMLDYDMVHFPPSQIAAGAFSLALKILDNGEWTPTLQHYLSYTEESLLPVMQHLAKNVVMVNQGLTKHMTVKNKYATSKHAKISTLPQLNSALVQDLAKAVAKV”, the “soluble on expression in E. coli” value is “soluble”.
Consider “MPKESLLRELSALREQLEQQPPLNEEQRAELELLIRDIELKLANEDALNEGSLVDGVNLAVERFEVSHPTLAGTLRSIVQSLANMGI”, for which the “soluble on expression in E. coli” value is on record as “not soluble”.
The same measure for “MSLKIAAFGEVMLRFTPPEYLMLEQTEQLRMNFVGTGVNLLANLAHFQLETALITKLPANRLGEAGKAALRKLGISDQWVGEKGDHIGSFFAEMGYGIRPTQVTYQNRHQSAFGISEAKDYDFEAFLAEVDMVHICGISLSLTEKTRDAALILAQKAHAYQKKVCFDFNYRPSLNTANSALFMRQQYERILPYCDIVFGSRRDLVELLGFIPREDLEGEAQETELIQRFMSQYNLEWFAGTTRSHSQNQNYLSGYLYTQNEYQQSEKRPLLNLDRIGAGDAYAAGILYGYSQNWSLEKAVTFATVNGVLAHTIQGDIPLTTVKQVNHVLEHPNIDLIREGHHHHHH”: “soluble”; for “MDHRAQAREVFVRAQLEAVQKAITKNEVPLKPKHARTIIVGTHKEKSSGIFWHTVGRIQLEKHPVLTWKFCHLVHKLLRDGHRKVPEETYRYVNRFTQLSQFWKHLNTSGYGPCIESYCKLLHDRVTFHNKYPVVPGKLDLNDSQLKTLEGDLDNMFEMTIDMLDQMDALLVLQDRVYEMMNSLRWNSLIPQGQCMLSPLIIAILDTSKFYDYLVKMIFKLHSQVPPDALEGHRSRFRTIFERTKKFYEESSNLQYFKYLVSIPTLPSHAPNFLQQSDLESYRTPHAYLHSEGSEDGTSLNGHDGELLNLAEAEPQQASPSSQPDPREEQIVMLSRAVEDEKFAKERLIQEARSRIEQYENRLLQMQGEFDHAKREADENREEAQRLKNELALRDASRTQTDDARVKEAELKATAAEERFNKMKGVYEKFRSEHVLALTKLGDIQKQLEASEKSKFDKDEEITALNRKVEEAQREAGRALTKAEGDAGAVDEMRTQLVKADIEVEELKRTIDHLRESHANQLVQSSAEETNKIRLAELEVAKESGVGITQMFDHCEDALQNATSITYPPHLAQSAMNNLVNILSNERLDEPLATKDNVFAGHLLSTTLSAAASAAYTASIESYEGVNDQCKKVLAAAKVAFSDDSALSRADKMKLLRQDIQTLNSLMISLPLQTDIDKDVVGNELEQEMRRMDDAIRRAVQEIEAIQRRARESSDGIRLEVNESILANCQALMSVIMQLVIASRELQTEIVAAGKAGGSPAEFYKRNHQWTEGLLSAAKAVGVAARVLVESADGVVTGKGKFEHLIVAAQEIAASTAQLFVSSRVKADKDSSKLDALSVAAKAVNQNTAQVVAAVKNGQTTLNDEGSLDFSYLSLHAAKKEEMESQVKMLELEQSLNQERAKLAALRKQHYHMAQLVANKEGEEAQE”: “not soluble”; for “MLSTGLDELVYRSNLIGSDRAVCNWGGGNTSMKTVEKDFRGREIAVMWVKGSGSDLATMGAKNFTGLNLEDIRPLIEREEMSDEEMVEYLGHCMIDRNHPRPSIETLLHAFLPFKHVDHTHPDAIISICCADNGKEIAKNLFGDRFVWVPYVRPGFSLSKLIAEGVQKNPHAELVLMEKHGLVVWGETAKESYDRTISVINEAEAYIRSRINESVIFGGGKLEHHHHHH”: “not soluble”.
The same measure for “MIRGEYLLRELNQNILLQSCQEFVKDYLDTICSFYLGKEVWYRFTELTNTEANCLVGTKEFFDEGHPLFGYRGTRRLLACLDEFQAEAHVVTEVYQTNPNLSVIFPFVNDADQLKQAITVLRQQGFTGKVGTMIELPSAYFDLSSILETGISKIVVGMNDLTSFVFATMRNSQWHDMESPIMLDMLRDMQDKARKNKIDFAVAGYLNTSFIQKMNQLGIKCIIHYSSIPEIFDLEIDHPDHLKHIKEESKKLQRSTHDTARNVE”: “soluble”; for “MQQLKAKSLEMRTPQATKTAVLVIGGAEDKVHGREILRTFVARAGASKAYITIIPSASREPAIIGGRYIRIFEEMGAEKVEILDIREREQCDSSQIKASLEACTGVFLTGGDQLRLCGVLSDTAAMDIIRQRVRAGQLTLAGTSAGAAVMGHHMIAGGGSGETPNRSLVDMATGLGFIPEVIVDQHFHNRNRMGRLVSAIAAHPDRLGIGIDEDTCAVFERDGWLQVMGKGSVTIVDPTELTHTNEPLVSANEPLTVHNLRLHILSYGDRFHLYQRTVLPAVHRISS”: “soluble”; for “MGSSHHHHHHHSSGRENLYFQGHMEGVRWAFSCGTWLPSRAEWLLAVRSIQPEEKERIGQFVFARDAKAAMAGRLMIRKLVAEKLNIPWNHIRLQRTAKGKPVLAKDSSNPYPNFNFNISHQGDYAVLAAEPELQVGIDIMKTSFPGRGSIPEFFHIMKRKFTNKEWETIRSFKDEWTQLDMFYRNWALKESFIKAIGVGLGFELQRLEFDLSPLNLDIGQVYKETRLFLDGEEEKEWAFEESKIDEHHFVAVALRKPDGSRHQDVPSQDDSKPTQRQFTILNFNDLMSSAVPMTPEDPSFWDCFCFTEEIPIRNGTKSLESG”: “soluble”.
As for “MGSDKIHHHHHHMQIGEVYFWTSTIKDWKNLLHQDKYKLLIIHCLKELVDRKMIKVYAFVIMPNHIHIVWEMLDQNGKEMPHASFNKKTAHEIVKDLKFNHPLVLPFFKVNEKEREYRIWQRDPLAIEMDSKKKAEQKIDYIHKNPLHERWNLAASPEEYYWSSAMYYQTGEDKFGFLTHYMERF”, the entry is “not soluble”.
Regarding “QVVMPRPPALCQGCGHRDVYDALNKVAAEYPDARIFGDIGCYTLGALPPFRAIDSCVDMGASITMAKGASDAGVFPAIAVIGDSTFTHSGMTGLLDAVNDRANITVVISDNLTTAMTGGQDSAGTNKFEAICLGLGVEPEHVRVVVPLPKNMEEITRTIREEIEYKGVSVIIPRRECIQTLNRKLRQKKADKA”, the “soluble on expression in E. coli” value is listed as “not soluble”.
For “MGSDKIHHHHHHMRLFSKLFNIRDNTVVERPRSLTGEGIAAKTQTRVAEKISSTPNDTDTVAAPTVDVAALFYSLLFATSHKDTGGIANNLEKRLIGNVESALADPKVIAEKVFKLPHDLIELDKQLANPEVDTEEVIALIKRDPVLSAEVIQLCNAPAFHRGAKDITSLQQAVVILGREQLRRFVSAVKVREVVEIKPIYYRRFGAEVWRHSLQVAYLAAELATEDQDTAFMLGLIHDVGKIAIFQMLLEAFAKAEPGEQPRSWLFRQVMTSKSLILSAVLARSWLLPPLFSRSLAALANPDNMPTEPLPKAIWTANHISECSMLWQAARLKEPQLNELLARIGMDRKTFDPLHEKLILFTR”, the “soluble on expression in E. coli” value is listed as “not soluble”.
For “MGSDKIHHHHHHMTEEKESLAGRQWLVDKVDNSIKEGQTAIPAIENGICQRCGSSCWVRLPSGFLYCRACVGLGRLDEGKLLVRQAAGSHYPARAGMTWTGQLQERQEGVSRFLLEKFAAKEDCLVEAVTGAGKTEMIFPLLAEAFSCGCRVAIATPRIDVVNELYPRLVAAFGEVEIGKYHGREEKEAANEQLVICTTHQLLKYYQAFDLLIIDEIDSFPYAGNPQLHFAAGNAVKKTGSQVFLTATPPEDLLKAARQGKLAIVRLNRRFHCYPLPVPRLDLYVKPFLTKGRLHPKLARRIKMAAKSGHPLLVFLPRIAQMPQYFAAVKRLLPDLRLATVYAQDPDRLEKVEKFRKGDLDLLLTTTILEGGVTLSMSG”, the “soluble on expression in E. coli” value is on record as “not soluble”.
For “MAHHHHHHMPYIASIDQGTTSSRCIIFDEKFTILSAHQLFHKQITPRPGWLEHDPEEIYSNCCLCLAEALKKLRSKDPKFEKVSAIGITNQRETGVAWDRKTGKPLCNAIVWSDARTYEVSNRIAKECGGGDRNFAANITGLPVSTYFTAFKFRWMLENVPAVAAARKSGSLLLGTIETWLLWKLSEGKVFLTDVSNASRTFLMNLRTQQWCDKLCQELDIPLAALPEIRSNSERYCDVVANDHGIRDALGVPTPVTGCIGDQQSALFGHIGLHKGDAKNTYGTGCFMLMNVGTEPQFSKHGLLGTIAYKLGTEPTKFALEGSVAGAGATVEWMRSNLGFFDHPMQMESIARKVGGTDGVVFVPAFGGLLAPYWDPTARGTLVGMTYKTNKSHIIRAALEAISMQVNAVMLAMKEDSGVEMNCLRVDGGLTRSRLLMEMQADILGVNLYVPHLTETTALGAALCAGLAVGVWKSVEEMQKTAKEHLSGETVNPITTDEQVRKARLEAWNAAVKLSRWAKL”, the “soluble on expression in E. coli” value was “soluble”.
The same measure for “LSESDRGASCAPIGAIADAVKSGKVGSCVNNEYDVPGGKVEDFVSGRAYWSPSTGAHALYGRINARYSEMGGPQSWLGFPISSEFAIKDNARVVQFQNGNIYWSPQRGAIAVPKDIVDKWGEQQWENGFLGFPVAEAKEVAGGFIQEFEGGLVVRTKDNKNQWLRGEIAKKYREMKTAESELGFPVSDEIKINGGAFQQFEHGNIYWSAATGAHFIRKGDIFNTWGVKKWEQGELGFPVTDHTQIPAGGEEITFQHGKISQVNGVIREERR”: “not soluble”; for “SLAHIVTLNTPLREDWLAQLADVVTNPDELLHLLQIEADENLRAGQDARRLFALRVPRAFIARMEKGNPDDPLLRQVLTSRDEFIVAPGFSTDPLEEQHSVVPGLLHKYQNRALLLVKGGCAVNCRYCFRRHFPYAENQGNKRNWTVALEYIAAHPELDEIIFSGGDPLMAKDHELDWLLTQLEAIKHVKRLRIHSRLPIVIPARITDELVARFDQSRLQILLVNHINHANEVDEAFGLAMKKLRHVGVTLLNQSVLLRGVNDNARTLANLSNALFDAGVMPYYLHVLDKVQGAAHFMVTDDEARQIMRELLTLVSGYMVPRLAREIGGEPSKTPLDLQLRQC”: “not soluble”.
